Laboratory results from US20210155689A1 (SHANGHAI PHARMAEXPLORER, published 2021).

T1: human LAG-3 on cells (HEK293-hLAG-3 stable cell line) (human, UniProt P18627 23-525)
T1 sequence: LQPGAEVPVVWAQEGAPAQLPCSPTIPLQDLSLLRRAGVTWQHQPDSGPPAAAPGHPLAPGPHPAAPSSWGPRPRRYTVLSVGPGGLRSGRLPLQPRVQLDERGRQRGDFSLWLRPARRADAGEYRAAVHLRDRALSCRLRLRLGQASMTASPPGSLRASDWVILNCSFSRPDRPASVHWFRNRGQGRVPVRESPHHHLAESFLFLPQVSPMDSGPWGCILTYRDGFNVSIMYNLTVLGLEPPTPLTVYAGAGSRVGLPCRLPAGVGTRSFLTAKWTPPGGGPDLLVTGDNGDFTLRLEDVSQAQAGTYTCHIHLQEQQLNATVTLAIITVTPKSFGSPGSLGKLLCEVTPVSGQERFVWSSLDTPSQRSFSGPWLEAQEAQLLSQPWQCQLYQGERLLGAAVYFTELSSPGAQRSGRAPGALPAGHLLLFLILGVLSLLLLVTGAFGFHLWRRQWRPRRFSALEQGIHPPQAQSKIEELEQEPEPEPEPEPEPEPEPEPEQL

T2: LAG-3-hFc protein (human LAG-3 extracellular region with hFc tag) (human, UniProt P18627 23-450)
T2 construct: also called hLAG-3-hFc; LAG-3 protein; not shown: human IgG Fc fragment (hFc) of the pCpC vector
T2 sequence: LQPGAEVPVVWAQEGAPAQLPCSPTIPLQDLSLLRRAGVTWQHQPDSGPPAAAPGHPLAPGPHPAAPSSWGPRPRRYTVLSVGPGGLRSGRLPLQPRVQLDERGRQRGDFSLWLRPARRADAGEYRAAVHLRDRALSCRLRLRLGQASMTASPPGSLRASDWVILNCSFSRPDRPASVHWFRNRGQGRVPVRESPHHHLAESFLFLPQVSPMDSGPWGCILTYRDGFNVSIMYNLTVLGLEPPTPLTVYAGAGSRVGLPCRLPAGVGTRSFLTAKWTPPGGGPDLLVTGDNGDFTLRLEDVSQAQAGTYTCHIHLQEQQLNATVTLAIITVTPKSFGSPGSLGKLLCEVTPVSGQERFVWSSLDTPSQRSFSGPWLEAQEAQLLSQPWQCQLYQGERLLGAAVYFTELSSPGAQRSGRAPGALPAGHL


Legend:
[1] = biological target: T1, human LAG-3 on cells (HEK293-hLAG-3 …); assay: cell-based or functional assay
[2] = biological target: T2, LAG-3-hFc protein (human LAG-3 …); assay: FACS, inhibition of LAG-3-hFc binding to MHC II on Raji cells, antibody 0.000 nM
Description: The FACS reaction plate incubating the Raji cells was centrifuged to discard the supernatant. The above mixture was added as 100 μl per well to Raji cells and incubated on ice for 1-2 hours. The plate was washed twice with blocking solution (PBS, 2% fetal bovine serum) by centrifugation, added with 100 microliters of fluorescent (Alexa 488)-labeled secondary antibodies per well, and incubated on ice for 1.0 hours. The plate was washed 2-3 times by centrifugation with blocking solution (PBS, 2% fetal bovine serum), added with 100 microliters of PBS per well to suspend cells, and detected using FACS (FACS Calibur, BD) and the results were analyzed. Wherein, the IgG control was murine IgG, and the data in the table is the inhibition rate (%).

Binder | IL-2 production, antigen-specific T lymphocyte stimulation test, 0.016 ug/ml, N = 1 [1] | IL-2 production, antigen-specific T lymphocyte stimulation test, 0.016 ug/ml, N = 2 [1] | IL-2 production, antigen-specific T lymphocyte stimulation test, 0.08 ug/ml, N = 1 [1] | IL-2 production, antigen-specific T lymphocyte stimulation test, 0.08 ug/ml, N = 2 [1] | IL-2 production, antigen-specific T lymphocyte stimulation test, 0.4 ug/ml, N = 1 [1] | IL-2 production, antigen-specific T lymphocyte stimulation test, 0.4 ug/ml, N = 2 [1] | IL-2 production, antigen-specific T lymphocyte stimulation test, 2 ug/ml, N = 1 [1] | IL-2 production, antigen-specific T lymphocyte stimulation test, 2 ug/ml, N = 2 [1] | IL-2 production, antigen-specific T lymphocyte stimulation test, 10 ug/ml, N = 1 [1] | IL-2 production, antigen-specific T lymphocyte stimulation test, 10 ug/ml, N = 2 [1] | Inhibition rate (%) [2]
556F6B8 mouse-human chimeric antibody (antibody, V domains shown, also called mAb123-556F6B8; 556F8B8) VH: RVQLKQSGPGLVQPSQSLSITCTVSGFSLIKYGVHWVRQSPGEGLEWLGVIWRGGITDYNAAFMSRLSITKDNSKSQVFFKMNSLQADDTAIYYCAKWDGPLAMDYWGQGTSVTVSS VL: DIVMTQSHKFLSTSVGDRVSITCKASQDVGTTVAWYQQKPGQSPKLLIYWASTRHTGVPDRFTGSGSGTDFTLTISNVQSEDLADYFCQQYSSYPYTFGGGTKLEIK | 348 pg/mL | 353 pg/mL | 499 pg/mL | 491 pg/mL | 794 pg/mL | 599 pg/mL | 818 pg/mL | 866 pg/mL | 584 pg/mL | 722 pg/mL | 12.9%
105F1E10 mouse-human chimeric antibody (antibody, V domains shown, also called mAb009-105F1E10) VH: EVQLQQSGPELVKPGASVKMSCRASGYTFTDFKMHWMKQSHGKSLEWIGYIAPNNGGTAYNQKFRGKATLTVNESSNTAYMELRSLTSEDSAVYYCVDWDDVDYWGQGTTLTVSS VL: DIKMTQSPSSMYASLGERVTITCKASQDINSYLSWFQQKSGKSPKTLIYRANRLVDGVPSRFSGSGSGQDYSLTISSLEYEDMGIYYCLQYVEFPLTFGAGTKLELK | 452 pg/mL | 420 pg/mL | 437 pg/mL | 467 pg/mL | 779 pg/mL | 757 pg/mL | 853 pg/mL | 792 pg/mL | 850 pg/mL | 627 pg/mL | -32.3%
405B8H3 mouse-human chimeric antibody (antibody, V domains shown, also called mAb103-405B8H3) VH: QVQLQQSGAELVRPGASVTLSCKASGYTFTDYEMHWVKQTPVHGLEWIGATDPETGNSAYNQKFKGKAIMTADKSSSTAYMELRSLTSEDSAVYYCISTGWNDWGQGTSLTVSS VL: DIKMTQSPSSMYASLGERVTITCKASQDINSYLSWFQQKPGKSPKTLIYRADRLLDGVPSRFSGSGSGQDYSLTISSLEYGDMGIYYCLQYDEFPYTFGGGTKLEIK | 366 pg/mL | 420 pg/mL | 666 pg/mL | 559 pg/mL | 883 pg/mL | 986 pg/mL | 876 pg/mL | 825 pg/mL | 770 pg/mL | 789 pg/mL | -15.6%
409D4E10 mouse-human chimeric antibody (antibody, V domains shown, also called mAb112-409D4E10) VH: QVQLQQSGAELVRPGASVTLSCKASGNTFTDYEMHWVKQTPVHGLEWIGATDPETDNTAYNQKFKGKAILTTDKSSSTAYMELRSLTSEDSAVYYCITSGWNDWGQGTSLTVSS VL: DIKMTQSPSSMYASLGERVTITCKASQDINSYLSWFQQKPGKSPKTLIYRANRLLDGVPSRFSGSGSGQDYSLTISSLEYEDMGIYYCLQYNEFPYTFGGGTKLEIK | 384 pg/mL | 334 pg/mL | 498 pg/mL | 534 pg/mL | 804 pg/mL | 678 pg/mL | 825 pg/mL | 673 pg/mL | 890 pg/mL | 801 pg/mL | -1.7%
409B11E12 mouse-human chimeric antibody (antibody, V domains shown, also called mAb104-409B11E12) VH: QVQLQQSGAELVRPGASVTLSCKASGYTFTDYEMHWVKQTTVHGLEWIGATDPETSYSAYNQKFKGKAILTADKSSSTAYMELRSLTSEDSAVYYCIATGWNDWGQGTSLTVSS VL: DLKMTQSPSSMYASLGERVTITCKASQDINSYLSWFQQKPGKSPKTLIYRANRLLDGVPSRFSGSGSGQDYSLTISSLEYEDMGIYYCLQYDEFPYTFGGGTKLEIK | 402 pg/mL | 433 pg/mL | 525 pg/mL | 555 pg/mL | 835 pg/mL | 954 pg/mL | 914 pg/mL | 915 pg/mL | 671 pg/mL | 795 pg/mL | -11.8%
